Measurements reported in US10487114.

System: T1, pT231-Pro tau peptide KVAVVR-(pT231)-(Pro)-PKSPS
T1 sequence: KVAVVRTPPKSPS

With PP2A the “dephosphorylation of pT231-tau peptide, read with the conformation-specific antibodies” value was “Trans, but not cis, pT231-tau peptide was readily dephosphorylated by PP2A in a time-dependent manner”.
